Biological target: T1, GST-UFL1 (human, UniProt O94874 1-794)
T1 construct: UFL1, human, E3 ligase for ufmylation; purified recombinant GST-UFL1; The end of the GST tag is read from the printed name 'GST-UFL1'; source: E. coli BL21, purified (glutathione beads); not shown: GST, N-terminal, kept
T1 sequence (looked up): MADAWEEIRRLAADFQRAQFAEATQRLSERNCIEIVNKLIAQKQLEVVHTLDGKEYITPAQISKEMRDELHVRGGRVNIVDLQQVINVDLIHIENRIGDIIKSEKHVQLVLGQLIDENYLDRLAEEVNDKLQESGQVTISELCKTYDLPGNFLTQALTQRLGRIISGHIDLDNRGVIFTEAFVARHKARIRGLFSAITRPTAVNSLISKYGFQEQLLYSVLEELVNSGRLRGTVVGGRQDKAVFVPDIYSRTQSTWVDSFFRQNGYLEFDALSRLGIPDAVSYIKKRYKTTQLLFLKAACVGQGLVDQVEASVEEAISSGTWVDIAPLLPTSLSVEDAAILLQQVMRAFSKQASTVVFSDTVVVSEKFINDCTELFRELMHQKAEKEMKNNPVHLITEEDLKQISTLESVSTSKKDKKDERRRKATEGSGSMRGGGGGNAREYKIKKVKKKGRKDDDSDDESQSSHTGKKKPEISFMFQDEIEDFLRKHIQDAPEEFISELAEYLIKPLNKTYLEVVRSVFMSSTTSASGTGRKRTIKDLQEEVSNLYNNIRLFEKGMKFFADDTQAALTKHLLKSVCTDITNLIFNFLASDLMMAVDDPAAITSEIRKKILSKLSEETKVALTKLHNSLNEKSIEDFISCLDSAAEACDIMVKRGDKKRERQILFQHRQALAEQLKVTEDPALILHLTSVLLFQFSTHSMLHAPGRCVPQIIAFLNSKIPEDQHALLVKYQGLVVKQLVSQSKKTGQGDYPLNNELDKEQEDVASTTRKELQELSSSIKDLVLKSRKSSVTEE
Test: pull-down; GST pull-down: purified GST-UFL1 (20 ug) and substrate-Flag-His6 (20 ug) with Glutathione Sepharose 4B beads, 4 °C overnight, 20 mM Tris-Cl, 100 mM NaCl, 5 mM MgCl2, 1 mM EDTA, 1 mM DTT, 0.5% NP-40, 10 ug/mL BSA, pH 7.5; immunoblot
Settings: both partners purified

binding result: binds
B1: MT1M-Flag-His6 (natural protein)
chain: not shown
notes: MT1M, metallothionein family, human; purified recombinant MT1M-Flag-His6; The ends of the tags are read from the printed name; source: E. coli BL21, purified (Ni-NTA beads); not shown: Flag, C-terminal, kept; His6, C-terminal, kept

— PMC7352202, “An Integrative Synthetic Biology Approach to Interrogating Cellular Ubiquitin and Ufm Signaling” (International Journal of Molecular Sciences, 2020)
